Target: T1, KIF1C-GFP (recombinant full-length human KIF1C, 6His-KIF1C-GFP) (human, UniProt O43896 1-1103)
T1 sequence (looked up): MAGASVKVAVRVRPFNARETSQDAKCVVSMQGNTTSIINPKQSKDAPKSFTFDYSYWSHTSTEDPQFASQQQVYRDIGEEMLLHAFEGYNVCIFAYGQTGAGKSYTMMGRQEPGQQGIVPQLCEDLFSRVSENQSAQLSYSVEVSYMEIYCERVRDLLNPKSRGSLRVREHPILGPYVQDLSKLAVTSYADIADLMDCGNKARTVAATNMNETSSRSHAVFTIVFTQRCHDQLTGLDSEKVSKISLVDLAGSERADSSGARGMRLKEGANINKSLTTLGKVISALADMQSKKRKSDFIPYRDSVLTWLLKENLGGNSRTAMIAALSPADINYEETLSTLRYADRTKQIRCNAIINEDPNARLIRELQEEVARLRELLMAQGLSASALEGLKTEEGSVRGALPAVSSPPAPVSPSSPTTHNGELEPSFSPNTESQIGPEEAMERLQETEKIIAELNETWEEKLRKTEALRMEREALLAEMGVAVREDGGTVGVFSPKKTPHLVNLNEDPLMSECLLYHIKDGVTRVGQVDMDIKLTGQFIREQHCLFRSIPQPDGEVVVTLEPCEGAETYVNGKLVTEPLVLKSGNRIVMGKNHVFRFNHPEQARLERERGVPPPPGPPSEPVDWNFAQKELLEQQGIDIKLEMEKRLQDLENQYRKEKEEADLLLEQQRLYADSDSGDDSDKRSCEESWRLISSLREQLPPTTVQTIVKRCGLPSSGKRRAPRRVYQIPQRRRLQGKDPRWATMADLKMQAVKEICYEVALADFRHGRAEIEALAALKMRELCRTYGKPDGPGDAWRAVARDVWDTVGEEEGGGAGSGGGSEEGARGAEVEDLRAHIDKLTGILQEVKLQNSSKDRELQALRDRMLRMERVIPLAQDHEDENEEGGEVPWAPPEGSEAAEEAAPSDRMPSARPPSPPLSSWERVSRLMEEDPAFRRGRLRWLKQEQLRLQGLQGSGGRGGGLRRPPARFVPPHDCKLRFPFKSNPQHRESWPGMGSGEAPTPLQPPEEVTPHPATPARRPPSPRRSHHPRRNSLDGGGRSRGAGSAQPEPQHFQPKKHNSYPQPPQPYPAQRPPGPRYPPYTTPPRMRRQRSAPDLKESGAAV
Assay: cell-based or functional assay

landing rate of KIF1C-GFP on microtubules in single molecule assays, 320 nM KIF1C preincubated with 500 nM Hook3-647: 2 fold
B1: Hook3-SNAPf labelled with Alexa647 (recombinant human Hook3 with a C-terminal SNAP-tag) (natural protein, UniProt Q86VS8 1-718, looked up)
chain: MFSVESLERAELCESLLTWIQTFNVDAPCQTVEDLTNGVVMAQVLQKIDPAYFDENWLNRIKTEVGDNWRLKISNLKKILKGILDYNHEILGQQINDFTLPDVNLIGEHSDAAELGRMLQLILGCAVNCEQKQEYIQAIMMMEESVQHVVMTAIQELMSKESPVSAGNDAYVDLDRQLKKTTEELNEALSAKEEIAQRCHELDMQVAALQEEKSSLLAENQVLMERLNQSDSIEDPNSPAGRRHLQLQTQLEQLQEETFRLEAAKDDYRIRCEELEKEISELRQQNDELTTLADEAQSLKDEIDVLRHSSDKVSKLEGQVESYKKKLEDLGDLRRQVKLLEEKNTMYMQNTVSLEEELRKANAARSQLETYKRQVVELQNRLSEESKKADKLDFEYKRLKEKVDSLQKEKDRLRTERDSLKETIEELRCVQAQEGQLTTQGLMPLGSQESSDSLAAEIVTPEIREKLIRLQHENKMLKLNQEGSDNEKIALLQSLLDDANLRKNELETENRLVNQRLLEVQSQVEELQKSLQDQGSKAEDSVLLKKKLEEHLEKLHEANNELQKKRAIIEDLEPRFNNSSLKIEELQEALRKKEEEMKQMEERYKKYLEKAKSVIRTLDPKQNQGAAPEIQALKNQLQERDRLFHSLEKEYEKTKSQREMEEKYIVSAWYNMGMTLHKKAAEDRLASTGSGQSFLARQRQATSSRRSYPGHVQPATAR
modifications: Alexa Fluor 647 on the SNAP tag (SNAP-Surface Alexa Fluor 647)

— doi:10.1101/488049 (bioRxiv, 2018)
